Test results: patent publication US20030148958A1 (PROCTER AND GAMBLE, published 2003)
Numbering of substitutions follows the chain as printed. Ends that are not written are not given here.

T1: corticotropin releasing factor 2 receptor
T1 sequence (Q13324 whole entry, species assumed, looked up): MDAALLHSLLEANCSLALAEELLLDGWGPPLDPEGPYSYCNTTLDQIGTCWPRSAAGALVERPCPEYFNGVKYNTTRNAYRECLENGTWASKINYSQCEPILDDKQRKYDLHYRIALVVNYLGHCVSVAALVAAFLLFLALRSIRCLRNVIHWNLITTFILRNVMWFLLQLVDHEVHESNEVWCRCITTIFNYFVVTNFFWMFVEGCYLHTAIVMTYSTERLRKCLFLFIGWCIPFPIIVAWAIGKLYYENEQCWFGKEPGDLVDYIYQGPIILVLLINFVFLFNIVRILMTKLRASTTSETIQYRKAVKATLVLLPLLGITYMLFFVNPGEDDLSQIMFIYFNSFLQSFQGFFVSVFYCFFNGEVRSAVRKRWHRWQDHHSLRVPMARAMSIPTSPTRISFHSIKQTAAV

B1: SEQ ID NO 25 (peptide)
peptide: ZGPPISIDLSIGLLRKMIEIEKQEKEKQQAANNRLLLDTI
modifications: C-terminal amide
B2: SEQ ID NO 27 (peptide)
peptide: B1 peptide with S10P, I11Q, G12Y
modifications: C-terminal amide
B3: SEQ ID NO 40 (peptide)
peptide: B1 peptide with S10P, I11Y, G12Y
modifications: C-terminal amide
B4: SEQ ID NO 44 (peptide)
peptide: B1 peptide with S10P, I11T, G12F
modifications: C-terminal amide
B5: SEQ ID NO 28 (peptide)
peptide: B1 peptide with S10P, G12D
modifications: C-terminal amide
B6: SEQ ID NO 38 (peptide)
peptide: B1 peptide with S10P, G12R
modifications: C-terminal amide
B7: SEQ ID NO 34 (peptide)
peptide: B1 peptide with S10P, G12K
modifications: C-terminal amide
B8: SEQ ID NO 26 (peptide)
peptide: B1 peptide with S10P, G12P
modifications: not fully specified; C-terminal amide
B9: SEQ ID NO 51 (peptide)
peptide: B1 peptide with S10P, I11T, G12L
modifications: C-terminal amide
B10: SEQ ID NO 47 (peptide)
peptide: B1 peptide with S10P, G12A
modifications: C-terminal amide
B11: SEQ ID NO 41 (peptide)
peptide: B1 peptide with S10P, I11T, G12W
modifications: C-terminal amide
B12: SEQ ID NO 54 (peptide)
peptide: B1 peptide with S10P, I11D, G12Y
modifications: C-terminal amide
B13: SEQ ID NO 50 (peptide)
peptide: B1 peptide with S10P, I11T, G12I
modifications: C-terminal amide
B14: SEQ ID NO 46 (peptide)
peptide: B1 peptide with S10P, I11T, G12V
modifications: C-terminal amide
B15: SEQ ID NO 29 (peptide)
peptide: B1 peptide with S10P, G12F
modifications: C-terminal amide
B16: SEQ ID NO 45 (peptide)
peptide: B1 peptide with S10P, I11T, G12K
modifications: C-terminal amide
B17: SEQ ID NO 49 (peptide)
peptide: B1 peptide with S10P, I11T, G12D
modifications: C-terminal amide
B18: SEQ ID NO 36 (peptide)
peptide: B1 peptide with S10P, G12I
modifications: C-terminal amide
B19: SEQ ID NO 48 (peptide)
peptide: B1 peptide with S10P, I11E, G12Y
modifications: C-terminal amide
B20: SEQ ID NO 43 (peptide)
peptide: B1 peptide with S10P, I11T, G12S
modifications: C-terminal amide
B21: SEQ ID NO 30 (peptide)
peptide: B1 peptide with I11L, G12E, R34A, D38A
modifications: C-terminal amide
B22: SEQ ID NO 32 (peptide)
peptide: B1 peptide with S10P, I11A, G12Y
modifications: C-terminal amide
B23: SEQ ID NO 52 (peptide)
peptide: B1 peptide with S10P, I11T, G12P
modifications: C-terminal amide
B24: SEQ ID NO 35 (peptide)
peptide: B1 peptide with S10P, G12L
modifications: C-terminal amide
B25: SEQ ID NO 31 (peptide)
peptide: B1 peptide with S10P, G12V
modifications: C-terminal amide
B26: SEQ ID NO 39 (peptide)
peptide: B1 peptide with S10P, I11V, G12Y
modifications: C-terminal amide
B27: SEQ ID NO 37 (peptide)
peptide: B1 peptide with S10P, G12N
modifications: C-terminal amide
B28: SEQ ID NO 42 (peptide)
peptide: B1 peptide with S10P, I11T, G12T
modifications: C-terminal amide
B29: SEQ ID NO 107 (peptide)
peptide: IVLSLDVPIGLLQILLEQEKARAAREQATTNARILARV-NH2
B30: SEQ ID NO 89 (peptide)
peptide: SQEPPISLDLPLELLREVLEMTKADQLAQQAHSNRKLLDIA-NH2
B31: SEQ ID NO 3 (peptide)
peptide: IVLSLDVPIGLLQILLEQEKARAAREQATTNARILARV-NH2
B32: SEQ ID NO 121 (peptide)
peptide: IVLSLDVPIGLLQILLEQEKARAAREQATTNARILARV-NH2
B33: SEQ ID NO 198 (peptide)
peptide: B1 peptide with S10P, I11Q, G12Q
modifications: C-terminal amide
B34: SEQ ID NO 197 (peptide)
peptide: B1 peptide with S10P, I11Q, G12V
modifications: C-terminal amide

What follows are binders tested against corticotropin releasing factor 1 receptor (assay: cell-based or functional assay).
Throughout, for CRF1R Emax: reference of the scale not given here.
Throughout, for CRF2R Emax: reference of the scale not given here.

Binder | CRF1R EC50 [µM] | CRF1R Emax [%]
B1 | 0.677 | 92.3
B2 | 0.325 | 100
B3 | 0.103 | 99
B4 | 0.944 | 64
B5 | > 1 | 2
B6 | > 1 | 11
B7 | > 1 | 11
B8 | > 1 | 16
B9 | > 1 | 48
B10 | 1 | 12
B11 | > 1 | 43
B12 | 1 | 10
B13 | > 1 | 42
B14 | > 1 | 17
B15 | > 1 | 79
B16 | > 1 | 7
B17 | > 1 | 15
B18 | > 1 | 33
B19 | 1 | 21
B20 | > 1 | 10
B21 | 0.1 | 100
B22 | 0.606 | 94
B23 | > 1 | 13
B24 | > 1 | 74
B25 | > 1 | 18
B26 | 1 | 63
B27 | > 1 | 5
B28 | > 1 | 10

What follows are binders tested against T1, corticotropin releasing factor 2 … (assay: cell-based or functional assay).

Binder | CRF2R EC50 [µM] | CRF2R Emax [%]
B29 | 0.0121 | 
B30 | 0.1 | 12.7
B31 | 0.0121 | 
B32 | 0.00567 | 
B1 | 0.081 | 81.9
B2 | 0.0107 | 96
B3 | 0.00695 | 93
B4 | 0.0192 | 87
B5 | 0.1 | 15
B6 | 0.0719 | 91
B7 | > 0.1 | 45
B8 | 0.0917 | 86
B9 | 0.0206 | 100
B10 | > 0.1 | 66
B11 | 0.0183 | 100
B12 | 0.1 | 11
B33 | 0.0299 | 100

Binder | CRF2R EC50 [µM] | CRF2R Emax [%]
B13 | 0.019 | 94
B14 | > 0.1 | 100
B15 | 0.016 | 100
B16 | > 0.1 | 44
B17 | > 0.1 | 37
B18 | 0.0148 | 73
B34 | 0.0481 | 94
B19 | 0.1 | 14
B20 | > 0.1 | 67
B21 | 0.0187 | 85.5
B22 | 0.0203 | 98
B23 | > 0.1 | 10
B24 | 0.0156 | 88
B25 | 0.0307 | 100
B26 | 0.0582 | 94
B27 | > 0.1 | 51
B28 | > 0.1 | 88
